Experimental data: patent US20020146750A1 (published 2002)
Numbering of substitutions follows the chain as printed.

B1: 7D1 (Fab, V domains shown)
VH: QVQLVQSGGGLVQPGGSLRLSCAASGFTFRSNAMGWVRQAPGKGLEWVSGISGSGGSTYYADSVKGRFTISRDNSKNTLYLQMNSLRAEDTAVYYCAKHTGGGVWDPIKHWGQGTLVTVSS
VL: EIVLTQSPLSLPVTPGEPASISCRSSQSLLHSNGYTYLDWYLQKPGQSPQLLIYSGSHRASGVPDRFSGSVSGTDFTLRISRVEAEDVGVYYCMQGLQSPFTFGPGTKVDIKR
notes: PH1 Fab variant; also called clone 7D1
B2: 7F9 (Fab, V domains shown)
VH: B1 VH with K109G, H110Y
VL: B1 VL
notes: PH1 Fab variant; also called clone 7F9
B3: 7F3 (Fab, V domains shown)
VH: B1 VH with K98I, H110Y
VL: B1 VL
notes: PH1 Fab variant; also called clone 7F3

Molecular target: T1, MUC1 (mucin-1) on MUC1-expressing cells (human, UniProt P15941 24-1255, underglycosylated / partially glycosylated tumor-associated glycoforms)
T1 construct: whole, on cells; also called cellular MUC1; tumor-associated MUC1
T1 sequence (P15941 24-1255): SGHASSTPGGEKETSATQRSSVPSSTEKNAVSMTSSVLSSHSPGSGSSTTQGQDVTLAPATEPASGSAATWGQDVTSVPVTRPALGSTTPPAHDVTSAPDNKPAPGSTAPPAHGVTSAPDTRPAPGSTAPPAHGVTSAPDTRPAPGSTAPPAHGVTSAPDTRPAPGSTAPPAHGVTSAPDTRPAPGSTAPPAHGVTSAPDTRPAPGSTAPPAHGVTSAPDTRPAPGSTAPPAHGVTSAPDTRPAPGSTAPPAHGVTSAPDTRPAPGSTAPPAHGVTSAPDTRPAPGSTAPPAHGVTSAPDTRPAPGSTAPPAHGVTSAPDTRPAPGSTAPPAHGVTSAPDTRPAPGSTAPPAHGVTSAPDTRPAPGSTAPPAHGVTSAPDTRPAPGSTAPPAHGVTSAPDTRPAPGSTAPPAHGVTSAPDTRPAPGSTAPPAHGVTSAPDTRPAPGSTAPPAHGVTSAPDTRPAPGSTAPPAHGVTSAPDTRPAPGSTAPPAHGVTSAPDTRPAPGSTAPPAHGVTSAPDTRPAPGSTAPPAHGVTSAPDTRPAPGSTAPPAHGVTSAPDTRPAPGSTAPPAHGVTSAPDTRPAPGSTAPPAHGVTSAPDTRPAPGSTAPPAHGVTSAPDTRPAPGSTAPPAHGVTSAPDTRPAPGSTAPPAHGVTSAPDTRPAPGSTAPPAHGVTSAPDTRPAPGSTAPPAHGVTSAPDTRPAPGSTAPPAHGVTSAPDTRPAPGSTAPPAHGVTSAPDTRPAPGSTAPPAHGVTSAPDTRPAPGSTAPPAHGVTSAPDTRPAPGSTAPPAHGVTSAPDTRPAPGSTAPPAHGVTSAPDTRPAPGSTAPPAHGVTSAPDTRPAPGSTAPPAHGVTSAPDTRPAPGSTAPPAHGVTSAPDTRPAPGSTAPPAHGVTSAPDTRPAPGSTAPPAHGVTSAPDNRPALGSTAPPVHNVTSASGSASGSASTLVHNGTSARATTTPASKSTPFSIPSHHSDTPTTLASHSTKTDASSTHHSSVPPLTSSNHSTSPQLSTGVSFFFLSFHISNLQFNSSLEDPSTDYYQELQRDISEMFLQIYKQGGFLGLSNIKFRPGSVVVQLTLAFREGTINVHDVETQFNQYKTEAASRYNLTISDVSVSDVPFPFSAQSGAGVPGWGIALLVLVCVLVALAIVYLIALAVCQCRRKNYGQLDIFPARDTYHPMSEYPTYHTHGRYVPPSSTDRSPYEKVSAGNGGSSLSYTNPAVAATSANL
Assay: flow cytometry, purified Fab dilutions on cellular MUC1 (ETA cells); data not shown
Description: Specific binding of the Fabs was measured by FACScalibur analysis (Becton Dickinson, Oxnard, Calif.) as described by Henderikx et al. (Cancer Res., 58: 4324-4332 (1998)). For affinity studies on cells with recombinant Fabs, the following flow cytometry experiment was carried out. Fab fragments were purified from the periplasmic fraction by IMAC and gel filtration as described in (Roovers et al., Br. J. Cancer, 78: 1407-1416 (1998)). Protein concentrations were measured with the bicinchoninic acid method (Sigma, St. Louis, Mo., USA). Two-fold serial dilutions of these Fabs were made and incubated, for each dilution point, with 2×10⁵/100 μl ETA cells (transfected 3T3 cells (Acres et al., J. Immunol., 14: 136-1443 (1993)). After trypsinisation, cells were washed one time in RPMI 10% FCS, 0.1% NaN₃ (incubation buffer). Then, cells were incubated with appropriate dilution for 1 hour at room temperature (RT), on a rotator. As negative controls, 2×10⁵ 3T3 mouse fibroblast cells were also incubated with the highest concentrations of antibodies. As a secondary negative control, ETA cells without primary antibody were used. Cells were spun down by centrifugation for 3 minutes at 611×g. Between incubations, cells were washed with incubation buffer. In a second incubation, anti-Myc antibody (6 μg/ml 9E10), directed against the Myc-tagged Fabs, was added for 30 minutes in incubation buffer at RT. After washing once, rabbit anti-mouse-FITC was used at RT for 30 minutes (Dako). Detection of bound antibodies was performed by means of flow cytometry on a FACSCalibur (Becton Dickinson, Oxnard), and results analyzed with the CELLQuest program (Becton Dickinson). Mean intensity was plotted against the concentration of the antibodies.
The relative ranking of the three clones from highest to lowest affinity (i.e., 7D1>7F3>7F9) appear to have stayed the same, but the positioning of both the wild type clone PH1 and best BIAcore mutant 5C8 appearef to be different from what was expected on the basis of the BIAcore affinity.

Row | Binder | binding result
1 | B1 | binds
2 | B2 | binds
3 | B3 | binds
